Source: doi:10.64898/2025.12.07.692841
Where two headings read alike, the source gives them in different places.

Tests used:
Test in all cases: crystal structure
[1] = molecular target: PII-nitrogen regulatory protein NifI2 from Methanocaldococcus infernus (Methanocaldococcus infernus strain DSM 11812)
[2] = molecular target: PII-nitrogen regulatory protein NifI2 from Methanocaldococcus infernus (Methanocaldococcus infernus strain DSM 11812); remark: listed apart in the source
[3] = molecular target: nitrogenase reductase NifH (dimer) from Methanocaldococcus infernus (Methanocaldococcus infernus strain DSM 11812)

Row | Substance | stoichiometry N [1] | stoichiometry N [2] | stoichiometry N [3]
1 | PII-nitrogen regulatory protein NifI2 from Methanocaldococcus infernus (natural protein) | 2 | 2 | –
2 | nitrogenase reductase NifH (dimer) from Methanocaldococcus infernus (enzyme) | – | – | 2
